Measurements as given in US20250145711A1 (Janssen / Centocor, published 2025).

T1: Human CD79b long isoform, recombinant extracellular domain (CD9W8.001) (human, UniProt P40259 29-159)
T1 construct: extracellular domain; also called hu CD79b long
T1 sequence (looked up): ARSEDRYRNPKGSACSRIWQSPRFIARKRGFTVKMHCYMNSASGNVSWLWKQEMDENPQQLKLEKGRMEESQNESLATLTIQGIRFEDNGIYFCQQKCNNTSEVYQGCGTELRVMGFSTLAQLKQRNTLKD

T2: Human CD79b short isoform, recombinant extracellular domain (CD9W7.001) (human, UniProt P40259 29-159)
T2 chain: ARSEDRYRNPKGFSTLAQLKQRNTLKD

T3: Human CD79b, endogenous on diffuse large B-cell lymphoma cell lines (human, UniProt P40259 29-229)
T3 construct: On HBL-1, OCI-LY10 and Carnaval cells, which also carry CD20; also called Igβ
T3 sequence: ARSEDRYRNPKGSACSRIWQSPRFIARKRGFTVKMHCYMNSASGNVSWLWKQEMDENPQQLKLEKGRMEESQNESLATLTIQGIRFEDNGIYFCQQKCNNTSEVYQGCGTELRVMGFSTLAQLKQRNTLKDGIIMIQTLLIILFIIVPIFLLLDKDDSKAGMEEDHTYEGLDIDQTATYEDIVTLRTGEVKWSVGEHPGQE


Key:
[1] = target: T1, Human CD79b long isoform, recombinant …; assay: SPR Biacore 8K, antibody captured by anti-human Fc, CD79b in solution, 25 C, 1:1 Langmuir
Experimental: (§1) General Protocol for SPR Affinity Assessment: Affinity assessment of the bispecific and trispecific constructs against human CD79b were measured using recombinantly expressed extracellular domain of CD79b short and long isoforms (CD9W7.001 and CD9W8.001, respectively) by Surface Plasmon Resonance (SPR) using a Biacore 8 k SPR system (Biacore) at 25° C. in HBSP+ buffer. Cross-reactivity of the same antibody panel was also assessed against cyno and mouse antigens (CD9W1.001 and CD9W105.001, respectively). Briefly, a C1 sensor chip was immobilized with anti-human Fc (target immobilization levels of >400 RU) using vendor recommended amino coupling protocol. The test antibodies were captured through immobilized anti-Fc and was followed by the injection of different CD79b constructs at different concentration series (human CD79b short and long isoforms: 30 nM-0.37 nM at 3-fold dilutions; cyno and mouse CD79b: 3000 nM-37 nM at 3-fold dilutions). The association and dissociation phases were measured for 2 or 3 minutes and 30 minutes, respectively.
(§2) The raw binding sensorgrams were processed using Biacore Insight software (Biacore) by double-referencing and the processed sensorgrams were analyzed for cross-reactivity and fitted to a 1:1 Langmuir model to obtain on-rates, off-rates and affinities.

[2] = target: T2, Human CD79b short isoform, recombinant …; assay: as above
Experimental: as §1, §2

[3] = target: T3, Human CD79b, endogenous on diffuse …; assay: flow cytometry on Carnaval cells; bispecific control in the trispecific table
Experimental: (§3) All cells were washed with BD stain buffer (BD Biosciences; Cat #554657), centrifuged at 1200 RPM for 3 minutes, with supernatant discarded. […] All cells were washed with BD stain buffer (BD Biosciences; Cat #554657), centrifuged at 1200 RPM for 3 mins, with supernatant discarded. Cells were analyzed using Intellicyt (Sartorius) flow cytometer and mean fluorescent intensity (MFI) was generated using Forcyt software (Sartorius). MFI was graphed and EC50 values generated using GraphPad PRISM v.8. Dose response curves were generated by transforming the x axis values using the formula […]. Data was then graphed using non-linear regression curve fit analysis “log(agonist) vs. response-variable slope (four parameter)”.

[4] = target: T3, Human CD79b, endogenous on diffuse …; assay: flow cytometry on HBL-1 cells; bispecific control in the trispecific table
Experimental: as §3

[5] = target: T3, Human CD79b, endogenous on diffuse …; assay: flow cytometry on HBL-1 cells (endogenous CD79b), 1 h 37 C, anti-human IgG AF647
Experimental: as §3

[6] = target: T3, Human CD79b, endogenous on diffuse …; assay: flow cytometry on Carnaval cells (endogenous CD79b), 1 h 37 C, anti-human IgG AF647
Experimental: as §3

[7] = target: T3, Human CD79b, endogenous on diffuse …; assay: flow cytometry on Carnaval cells (endogenous CD79b and CD20; the trispecific also has a CD20 arm)
[8] = target: T3, Human CD79b, endogenous on diffuse …; assay: flow cytometry on HBL-1 cells (endogenous CD79b and CD20; the trispecific also has a CD20 arm)
[9] = target: T3, Human CD79b, endogenous on diffuse …; assay: flow cytometry on OCI-LY10 cells (endogenous CD79b and CD20; the trispecific also has a CD20 arm)

Row | Binder | Kd [1] [nM] | Kd [2] [nM] | EC50 [3] [nM] | EC50 [4] [nM] | EC50 [5] [nM] | EC50 [6] [nM] | EC50 [7] [nM] | EC50 [8] [nM] | EC50 [9] [nM]
1 | 79C3B646 (bispecific antibody, human IgG1, lambda, L234A L235A, IgG1; HC1/LC form the CD79b Fab arm; HC2 is the CD3 scFv-Fc arm; Knobs-in-holes; also called CD79bxCD3 bsAb; CD9B330-N31S x CD3B2030-N106A) heavy: QVQLQQSGPGLVKPSQTLSLTCAISGDSVSSNSATWNWIRQSPSRGLEWLGRTYYRSKWYNDYTVSVKSRITINPDTSKNQFSLQLNSVTPEDTAVYYCTRVDIAFDYWGQGTLVTVSSASTKGPSVFPLAPSSKSTSGGTAALGCLVKDYFPEPVTVSWNSGALTSGVHTFPAVLQSSGLYSLSSVVTVPSSSLGTQTYICNVNHKPSNTKVDKKVEPKSCDKTHTCPPCPAPEAAGGPSVFLFPPKPKDTLMISRTPEVTCVVVSVSHEDPEVKFNWYVDGVEVHNAKTKPREEQYNSTYRVVSVLTVLHQDWLNGKEYKCKVSNKALPAPIEKTISKAKGQPREPQVYTLPPSREEMTKNQVSLSCAVKGFYPSDIAVEWESNGQPENNYKTTPPVLDSDGSFFLVSKLTVDKSRWQQGNVFSCSVMHEALHNRFTQKSLSLSPGK light: QTVVTQPPSVSEAPRQRVTISCSGSSSNIGNHGVNWYQQLPGKAPKLLIYNDDLLPSGVSDRFSGSTSGTSGSLAISGLQSEDEADYYCAAWDDSLNGVVFGGGTKLTVLGQPKAAPSVTLFPPSSEELQANKATLVCLISDFYPGAVTVAWKADSSPVKAGVETTTPSKQSNNKYAASSYLSLTPEQWKSHRSYSCQVTHEGSTVEKTVAPTECS EIVLTQSPATLSASPGERVTLSCSASSSVSYMNWYQQKPGQAPRRWIYDSSKLASGVPARFSGSGSGRDYTLTISSLEPEDFAVYYCQQWSRNPPTFGGGTKVEIKGGSEGKSSGSGSESKSTGGSQVQLVQSGAEVKKPGSSVKVSCKASGYTFTRSTMHWVKQAPGQGLEWIGYINPSSAYTNYNQKFQGRVTLTADKSTSTAYMELSSLRSEDTAVYYCASPQVHYDYAGFPYWGQGTLVTVSSEPKSSDKTHTCPPCPAPEAAGGPSVFLFPPKPKDTLMISRTPEVTCVVVSVSHEDPEVKFNWYVDGVEVHNAKTKPREEQYNSTYRVVSVLTVLHQDWLNGKEYKCKVSNKALPAPIEKTISKAKGQPREPQVYTLPPSREEMTKNQVSLWCLVKGFYPSDIAVEWESNGQPENNYKTTPPVLDSDGSFFLYSKLTVDKSRWQQGNVFSCSVMHEALHNHYTQKSLSLSPGK | 0.022 | 0.58 | 44 | 97 | 97 | 44 |  |  | 
2 | 79C3B651 (bispecific antibody, human IgG1, kappa, L234A L235A, IgG1; HC1/LC form the CD79b Fab arm; HC2 is the CD3 scFv-Fc arm; Knobs-in-holes; also called CD79bxCD3 bsAb; CD9B643 x CD3B2030-N106A) heavy: QVQLQESGPGLVKPSQTLSLTCTVSGVSISNYYWSWIRQPPGKGLEWIGRISPSGRTNYNPSLKSRVTMSLDASKNQFSLKLSSVTAADTAVYYCARGEYSGTYSYSFDIWGQGTMVTVSSASTKGPSVFPLAPSSKSTSGGTAALGCLVKDYFPEPVTVSWNSGALTSGVHTFPAVLQSSGLYSLSSVVTVPSSSLGTQTYICNVNHKPSNTKVDKKVEPKSCDKTHTCPPCPAPEAAGGPSVFLFPPKPKDTLMISRTPEVTCVVVSVSHEDPEVKFNWYVDGVEVHNAKTKPREEQYNSTYRVVSVLTVLHQDWLNGKEYKCKVSNKALPAPIEKTISKAKGQPREPQVYTLPPSREEMTKNQVSLSCAVKGFYPSDIAVEWESNGQPENNYKTTPPVLDSDGSFFLVSKLTVDKSRWQQGNVFSCSVMHEALHNRFTQKSLSLSPGK light: DIQMTQSPSSLSASVGDRVTITCRSSQSLFDSDDGNTYLDWFQQKPGQSPKLLIQTLSYRASGVPSRFSGSGSGTDFTLTISSLQPEDFATYYCMQRMEFPLTFGGGTKVEIKRTVAAPSVFIFPPSDEQLKSGTASVVCLLNNFYPREAKVQWKVDNALQSGNSQESVTEQDSKDSTYSLSSTLTLSKADYEKHKVYACEVTHQGLSSPVTKSFNRGEC EIVLTQSPATLSASPGERVTLSCSASSSVSYMNWYQQKPGQAPRRWIYDSSKLASGVPARFSGSGSGRDYTLTISSLEPEDFAVYYCQQWSRNPPTFGGGTKVEIKGGSEGKSSGSGSESKSTGGSQVQLVQSGAEVKKPGSSVKVSCKASGYTFTRSTMHWVKQAPGQGLEWIGYINPSSAYTNYNQKFQGRVTLTADKSTSTAYMELSSLRSEDTAVYYCASPQVHYDYAGFPYWGQGTLVTVSSEPKSSDKTHTCPPCPAPEAAGGPSVFLFPPKPKDTLMISRTPEVTCVVVSVSHEDPEVKFNWYVDGVEVHNAKTKPREEQYNSTYRVVSVLTVLHQDWLNGKEYKCKVSNKALPAPIEKTISKAKGQPREPQVYTLPPSREEMTKNQVSLWCLVKGFYPSDIAVEWESNGQPENNYKTTPPVLDSDGSFFLYSKLTVDKSRWQQGNVFSCSVMHEALHNHYTQKSLSLSPGK | 0.052 | 0.35 | 12 | 15 | 15 | 12 |  |  | 
3 | C923B99 (other, Trispecific IgG1 antibody; HC1/LC form the CD79b Fab; HC2 is CD3 scFv-Fc-linker-CD20 scFv; also called CD79bxCD20xCD3 trispecific; CD9B643 / CD3B2030-N106A-scFv-LH-C20B22) heavy: QVQLQESGPGLVKPSQTLSLTCTVSGVSISNYYWSWIRQPPGKGLEWIGRISPSGRTNYNPSLKSRVTMSLDASKNQFSLKLSSVTAADTAVYYCARGEYSGTYSYSFDIWGQGTMVTVSSASTKGPSVFPLAPSSKSTSGGTAALGCLVKDYFPEPVTVSWNSGALTSGVHTFPAVLQSSGLYSLSSVVTVPSSSLGTQTYICNVNHKPSNTKVDKKVEPKSCDKTHTCPPCPAPEAAGGPSVFLFPPKPKDTLMISRTPEVTCVVVSVSHEDPEVKFNWYVDGVEVHNAKTKPREEQYNSTYRVVSVLTVLHQDWLNGKEYKCKVSNKALPAPIEKTISKAKGQPREPQVYTLPPSREEMTKNQVSLSCAVKGFYPSDIAVEWESNGQPENNYKTTPPVLDSDGSFFLVSKLTVDKSRWQQGNVFSCSVMHEALHNRFTQKSLSLSPGK light: DIQMTQSPSSLSASVGDRVTITCRSSQSLFDSDDGNTYLDWFQQKPGQSPKLLIQTLSYRASGVPSRFSGSGSGTDFTLTISSLQPEDFATYYCMQRMEFPLTFGGGTKVEIKRTVAAPSVFIFPPSDEQLKSGTASVVCLLNNFYPREAKVQWKVDNALQSGNSQESVTEQDSKDSTYSLSSTLTLSKADYEKHKVYACEVTHQGLSSPVTKSFNRGEC EIVLTQSPATLSASPGERVTLSCSASSSVSYMNWYQQKPGQAPRRWIYDSSKLASGVPARFSGSGSGRDYTLTISSLEPEDFAVYYCQQWSRNPPTFGGGTKVEIKGGSEGKSSGSGSESKSTGGSQVQLVQSGAEVKKPGSSVKVSCKASGYTFTRSTMHWVKQAPGQGLEWIGYINPSSAYTNYNQKFQGRVTLTADKSTSTAYMELSSLRSEDTAVYYCASPQVHYDYAGFPYWGQGTLVTVSSEPKSSDKTHTCPPCPAPEAAGGPSVFLFPPKPKDTLMISRTPEVTCVVVSVSHEDPEVKFNWYVDGVEVHNAKTKPREEQYNSTYRVVSVLTVLHQDWLNGKEYKCKVSNKALPAPIEKTISKAKGQPREPQVYTLPPSREEMTKNQVSLWCLVKGFYPSDIAVEWESNGQPENNYKTTPPVLDSDGSFFLYSKLTVDKSRWQQGNVFSCSVMHEALHNHYTQKSLSLSPGKGGSEGKSSGSGSESKSTGGSAIQLTQSPSSLSASVGDRVTITCRASSSVSYIHWFQQKPGKAPKPLIYATSNLASGVPSRFSGSGSGTDFTLTISSLQPEDFATYYCQQWTSNPPTFGQGTKLEIKGGSEGKSSGSGSESKSTGGSQVQLVQSGAEVKKPGSSVKVSCKASGYTFTSYNMHWVRQAPGQGLEWMGAIYPGNGDTSYAQKFQGRVTITADKSTSTAYMELSSLRSEDTAVYYCARSTYYGGDWYFNVWGQGTLVTVSS | 0.04 | 0.27 |  |  |  |  | 6 | 8 | 2
